Biological target: the molecule itself
Experiment: non-reducing and reducing SDS-PAGE after surface biotinylation and anti-HA immunoprecipitation; cells surface biotinylated, lysed in 1% NP40 ± 10 mM iodoacetamide, HA-tagged protein precipitated with anti-HA resin, blot with streptavidin-HRP; with or without BTN3A1, with or without Zol

B1: HA-tagged BTN2A1 (surface biotinylation experiment) (natural protein, human, UniProt Q7KYR7 29-527, looked up)
chain: QFIVVGPTDPILATVGENTTLRCHLSPEKNAEDMEVRWFRSQFSPAVFVYKGGRERTEEQMEEYRGRTTFVSKDISRGSVALVIHNITAQENGTYRCYFQEGRSYDEAILHLVVAGLGSKPLISMRGHEDGGIRLECISRGWYPKPLTVWRDPYGGVAPALKEVSMPDADGLFMVTTAVIIRDKSVRNMSCSINNTLLGQKKESVIFIPESFMPSVSPCAVALPIIVVILMIPIAVCIYWINKLQKEKKILSGEKEFERETREIALKELEKERVQKEEELQVKEKLQEELRWRRTFLHAVDVVLDPDTAHPDLFLSEDRRSVRRCPFRHLGESVPDNPERFDSQPCVLGRESFASGKHYWEVEVENVIEWTVGVCRDSVERKGEVLLIPQNGFWTLEMHKGQYRAVSSPDRILPLKESLCRVGVFLDYEAGDVSFYNMRDRSHIYTCPRSAFSVPVRPFFRLGCEDSPIFICPALTGANGVTVPEEGLTLHRVGTHQSL
modifications: surface lysines biotinylated with EZ-Link Sulfo NHS-LC-biotin
notes: Butyrophilin-2A1 (BTN2A1), human; also called CHO-cell expressed BTN2A1; cell surface BTN2A1
With B1 the “stoichiometry N” value was 2.
